This is an account of results in paper PMC6947831, “Mitochondrial localization of Dictyostelium discoideum dUTPase mediated by its N-terminus” (BMC Research Notes, 2020).

Substrate in series [1]: O=c1ccn([C@H]2C[C@H](O)[C@@H](COP(=O)(O)OP(=O)(O)OP(=O)(O)O)O2)c(=O)[nH]1
The series is described as follows: stopped-flow absorbance, proton release with cresol red. The class given is biochemical, Dictyostelium discoideum. The following applies: enzyme 0.15 µM. The source says: stopped-flow absorbance, proton release with cresol red on full-length D. discoideum dUTPase

Substrate in series [2]: O=c1ccn([C@H]2C[C@H](O)[C@@H](COP(=O)(O)OP(=O)(O)OP(=O)(O)O)O2)c(=O)[nH]1
Described as above. Format: biochemical, Dictyostelium discoideum. As to conditions: enzyme 0.15 µM. An excerpt: stopped-flow absorbance, proton release with cresol red on core D. discoideum dUTPase
The source holds these as a separate data set.

B1: full-length D. discoideum dUTPase (Dictyostelium discoideum) (protein)
chain: MPIEQKYFSLFSNLFKRLTTNNNNNNYLKMAPPNFETFKVKKLSDKAIIPQRGSKGAAGYDLSSAHELVVPAHGKALAMTDLQIAIPDGTYGRIAPRSGLAWKNFIDCGAGVIDSDYRGNVGVVLFNHSDVDFKVAVGDRVAQLIFERIVTPEPLEVDEIDETQRGAGGFGSTGVKVQN
As usually defined, the Km is the substrate concentration at which the rate is half of its maximum. A word on the Vmax: it is the top rate of the reaction or transport when substrate is in excess. In the case of B1, in series [1], the Km came out at 1.0 ± 0.2 µM and the Vmax came to 30 µM/min.

B2: core D. discoideum dUTPase (Dictyostelium discoideum) (protein)
chain: FKVKKLSDKAIIPQRGSKGAAGYDLSSAHELVVPAHGKALAMTDLQIAIPDGTYGRIAPRSGLAWKNFIDCGAGVIDSDYRGNVGVVLFNHSDVDFKVAVGDRVAQLIFERIVTPEPLEVDEIDETQRGAGGFGSTGVKVQN
notes: core lacking residues 1-37, N-terminal GSHM from cloning, E. coli, His-tag removed, homotrimer
In general, kcat refers to the number of substrate molecules converted per active site and unit of time at saturation. Broadly, the kcat/Km is the turnover number divided by the Michaelis constant. As to B2, in series [2], the Km came out at 0.5 ± 0.1 µM, the Vmax was 84 µM/min, the kcat came to 9.3 s⁻¹ and the kcat/Km was 1.86e+07 M⁻¹ s⁻¹.
